Measurements reported in paper PMC11211662, “A novel alcohol dehydrogenase in the hyperthermophilic crenarchaeon Hyperthermus butylicus” (mLife, 2024).

Assays:
Assay in all cases: purified protein
purified protein [1] = substrate: CC(C)O; conditions: oxidation, 0.4 mM NADP+, 100 mM EPPS pH 9.0, 80 °C, anaerobic
purified protein [2] = substrate: CCO; conditions: oxidation, 0.4 mM NADP+, 100 mM EPPS pH 9.0, 80 °C, anaerobic
purified protein [3] = substrate: CC(C)=O; type: biochemical, Hyperthermus butylicus; conditions: reduction, 0.2 mM NADPH, 100 mM PIPES pH 6.0, 80 °C, anaerobic, pH 6.0
purified protein [4] = substrate: CC=O; type: biochemical, Hyperthermus butylicus; conditions: reduction, 0.2 mM NADPH, 100 mM PIPES pH 6.0, 80 °C, anaerobic, pH 6.0
purified protein [5] = substrate: CCC=O; type: biochemical, Hyperthermus butylicus; conditions: reduction, 0.2 mM NADPH, 100 mM PIPES pH 6.0, 80 °C, anaerobic, pH 6.0
purified protein [6] = substrate: CCCC=O; type: biochemical, Hyperthermus butylicus; conditions: reduction, 0.2 mM NADPH, 100 mM PIPES pH 6.0, 80 °C, anaerobic, pH 6.0
purified protein [7] = substrate: CCCCO; type: biochemical, Hyperthermus butylicus; conditions: oxidation, 0.4 mM NADP+, 100 mM EPPS pH 9.0, 80 °C, anaerobic, pH 9.0
purified protein [8] = substrate: CCCO; type: biochemical, Hyperthermus butylicus; conditions: oxidation, 0.4 mM NADP+, 100 mM EPPS pH 9.0, 80 °C, anaerobic, pH 9.0

B1: HbADH2 (Hyperthermus butylicus DSM 5456) (protein)
chain: MLRRLQSSLRDYVRKYIVRLNCNAGGTTCKPSSTECQRFLAEPNLPQALLLAGYRLLDCTCSSGGGVSIELVGTSGDTIPARLCLDCGSIFPALTLKAQLPLSTSIPPYRGPIQEAMLKTVETIAQFCAHRKGLPLLLDTVLAEPARMCKVKLGCRPIHISSFEKADLGTVSPRIKLPTILSWITLRLRKSIEIEAPWLCVESNNGALQLVCLSETCRFEVTHCGSVRLIHGKAIALPSSTRCSPALLHLVYLYGTLYKSIDDVNVKPCIWSMTGLAILGAWYSTGENGESMMLLVWNPLKKSKLHEIVFERHRIVEAKLTSPATWLEEQLIPQYNRLRIPLPPHGARLVYVRLRKLPRLLSKNANG
notes: native protein purified anaerobically from H. butylicus cell-free extract (DEAE-Sepharose, hydroxyapatite, phenyl-Sepharose); untagged; 367 residues deduced, 40,694 Da calculated; gene assigned by mass spectrometry of the gel band, not by recombinant expression
Km (purified protein [1]): 3.74 ± 0.46 mM
kcat (purified protein [1]): 3.47 s⁻¹
kcat/Km (purified protein [1]): 928 M⁻¹ s⁻¹
Km (purified protein [2]): 4.36 ± 0.42 mM
kcat (purified protein [2]): 4 s⁻¹
kcat/Km (purified protein [2]): 915 M⁻¹ s⁻¹
Km (purified protein [3]): 0.68 ± 0.04 mM
kcat (purified protein [3]): 3.84 ± 0.06 s⁻¹
kcat/Km (purified protein [3]): 8070 ± 1520 M⁻¹ s⁻¹
Km (purified protein [4]): 1.27 ± 0.18 mM
kcat (purified protein [4]): 7 ± 0.31 s⁻¹
kcat/Km (purified protein [4]): 5510 ± 1720 M⁻¹ s⁻¹
Km (purified protein [5]): 1.55 ± 0.20 mM
kcat (purified protein [5]): 1.79 ± 0.07 s⁻¹
kcat/Km (purified protein [5]): 1160 ± 338 M⁻¹ s⁻¹
Km (purified protein [6]): 0.59 ± 0.07 mM
kcat (purified protein [6]): 8 ± 0.22 s⁻¹
kcat/Km (purified protein [6]): 13600 ± 3140 M⁻¹ s⁻¹
Km (purified protein [7]): 2.44 ± 0.30 mM
kcat (purified protein [7]): 6.84 ± 0.24 s⁻¹
kcat/Km (purified protein [7]): 2800 ± 814 M⁻¹ s⁻¹
Km (purified protein [8]): 4.69 ± 0.41 mM
kcat (purified protein [8]): 4.4 ± 0.12 s⁻¹
kcat/Km (purified protein [8]): 938 ± 293 M⁻¹ s⁻¹
